Experimental data taken from patent publication US20220204580A1 (AstraZeneca / MedImmune, published 2022).
Numbered stars: 1 amine (or outer) side, 2 acyl side, 3 side chain; on linkers, the order of the positions; unused ones are H or OH. Bridge positions count the residues as written; N and C are the ends. Square brackets hold non-standard residues; d marks the D form. Side chains are listed from the residue outwards. Ends that are not written are not given here. * marks the point of attachment. C18 diacid = O=C(O)CCCCCCCCCCCCCCCCC(=O)*; γGlu = O=C(O)[C@H](CCC(=O)[*:2])N[*:1]; αMeF = C[C@](N)(Cc1ccccc1)C(=O)O; Dab = NCC[C@H](N)C(=O)O; Aib = CC(C)(N)C(=O)O

T1: human calcitonin receptor (human, UniProt P30988 25-474)
T1 sequence (looked up): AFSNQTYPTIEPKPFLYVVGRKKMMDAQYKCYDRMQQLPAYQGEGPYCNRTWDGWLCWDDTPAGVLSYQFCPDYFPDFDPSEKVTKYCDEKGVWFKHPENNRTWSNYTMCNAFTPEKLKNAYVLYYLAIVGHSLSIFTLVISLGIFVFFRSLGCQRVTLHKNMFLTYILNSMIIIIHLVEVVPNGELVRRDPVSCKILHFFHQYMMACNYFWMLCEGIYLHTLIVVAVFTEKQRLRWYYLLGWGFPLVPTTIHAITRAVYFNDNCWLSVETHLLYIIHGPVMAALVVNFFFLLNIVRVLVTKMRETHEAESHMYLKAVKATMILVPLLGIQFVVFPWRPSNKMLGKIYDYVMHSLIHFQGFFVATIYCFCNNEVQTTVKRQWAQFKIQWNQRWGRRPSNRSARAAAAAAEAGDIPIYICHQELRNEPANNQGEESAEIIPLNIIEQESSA

T2: human amylin receptor (calcitonin receptor co-expressed with receptor activity modifying protein, RAMP3) (human, UniProt P30988 25-474; O60896 24-148)
T2 sequence (looked up) 1: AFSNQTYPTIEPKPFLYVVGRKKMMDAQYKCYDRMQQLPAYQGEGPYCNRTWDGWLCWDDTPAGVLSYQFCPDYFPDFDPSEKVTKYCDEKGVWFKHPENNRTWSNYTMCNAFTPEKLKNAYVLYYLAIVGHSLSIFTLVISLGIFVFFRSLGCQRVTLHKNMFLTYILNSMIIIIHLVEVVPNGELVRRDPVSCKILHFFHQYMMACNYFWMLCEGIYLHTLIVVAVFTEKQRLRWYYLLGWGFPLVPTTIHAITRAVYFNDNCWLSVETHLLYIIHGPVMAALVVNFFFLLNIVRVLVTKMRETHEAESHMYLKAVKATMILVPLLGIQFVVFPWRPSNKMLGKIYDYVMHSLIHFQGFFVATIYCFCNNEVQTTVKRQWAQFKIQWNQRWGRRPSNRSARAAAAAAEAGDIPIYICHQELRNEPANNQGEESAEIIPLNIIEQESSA
T2 sequence (looked up) 2: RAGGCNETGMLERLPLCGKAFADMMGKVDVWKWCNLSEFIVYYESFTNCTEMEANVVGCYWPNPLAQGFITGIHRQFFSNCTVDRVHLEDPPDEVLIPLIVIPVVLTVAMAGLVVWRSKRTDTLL


What was measured:
[1] = target: T1, human calcitonin receptor; assay: cell-based or functional assay
[2] = target: T2, human amylin receptor (calcitonin …); assay: cell-based or functional assay

| EC50 (cAMP production) [1] [nM] | EC50 (cAMP production) [2] [nM] | Ratio (EC50 hCTR / EC50 hAMYR3) [2] | Binder |
| --- | --- | --- | --- |
| 4.18 | 0.179 | 23.4 | K([γGlu-C18 diacid])CNTATCATQRLANFL[Aib]HSS[Dab]NFGPILPPTNVGSNTY-NH2 (disulfide 2-7; N-terminus assumed; SMILES CC[C@H](C)[C@H](NC(=O)[C@@H]1CCCN1C(=O)CNC(=O)[C@H](Cc1ccccc1)NC(=O)[C@H](CC(N)=O)NC(=O)[C@H](CCN)NC(=O)[C@H](CO)NC(=O)[C@H](CO)NC(=O)[C@H](Cc1c[nH]cn1)NC(=O)C(C)(C)NC(=O)[C@H](CC(C)C)NC(=O)[C@H](Cc1ccccc1)NC(=O)[C@H](CC(N)=O)NC(=O)[C@H](C)NC(=O)[C@H](CC(C)C)NC(=O)[C@H](CCCNC(=N)N)NC(=O)[C@H](CCC(N)=O)NC(=O)[C@@H](NC(=O)[C@H](C)NC(=O)[C@@H]1CSSC[C@H](NC(=O)[C@@H](N)CCCCNC(=O)CC[C@H](NC(=O)CCCCCCCCCCCCCCCCC(=O)O)C(=O)O)C(=O)N[C@@H](CC(N)=O)C(=O)N[C@@H]([C@@H](C)O)C(=O)N[C@@H](C)C(=O)N[C@@H]([C@@H](C)O)C(=O)N1)[C@@H](C)O)C(=O)N[C@@H](CC(C)C)C(=O)N1CCC[C@H]1C(=O)N1CCC[C@H]1C(=O)N[C@H](C(=O)N[C@@H](CC(N)=O)C(=O)N[C@H](C(=O)NCC(=O)N[C@@H](CO)C(=O)N[C@@H](CC(N)=O)C(=O)N[C@H](C(=O)N[C@@H](Cc1ccc(O)cc1)C(N)=O)[C@@H](C)O)C(C)C)[C@@H](C)O) [Peptide 150 (SEQ ID NO: 150)] |
| 0.898 | 0.061 | 14.7 | K([γGlu-C18 diacid])CNTATCATQRLANFL[Aib]HSSNNFGPI[dL]PPTNVGSNTY-NH2 (disulfide 2-7; N-terminus assumed; SMILES CC[C@H](C)[C@H](NC(=O)[C@@H]1CCCN1C(=O)CNC(=O)[C@H](Cc1ccccc1)NC(=O)[C@H](CC(N)=O)NC(=O)[C@H](CC(N)=O)NC(=O)[C@H](CO)NC(=O)[C@H](CO)NC(=O)[C@H](Cc1c[nH]cn1)NC(=O)C(C)(C)NC(=O)[C@H](CC(C)C)NC(=O)[C@H](Cc1ccccc1)NC(=O)[C@H](CC(N)=O)NC(=O)[C@H](C)NC(=O)[C@H](CC(C)C)NC(=O)[C@H](CCCNC(=N)N)NC(=O)[C@H](CCC(N)=O)NC(=O)[C@@H](NC(=O)[C@H](C)NC(=O)[C@@H]1CSSC[C@H](NC(=O)[C@@H](N)CCCCNC(=O)CC[C@H](NC(=O)CCCCCCCCCCCCCCCCC(=O)O)C(=O)O)C(=O)N[C@@H](CC(N)=O)C(=O)N[C@@H]([C@@H](C)O)C(=O)N[C@@H](C)C(=O)N[C@@H]([C@@H](C)O)C(=O)N1)[C@@H](C)O)C(=O)N[C@H](CC(C)C)C(=O)N1CCC[C@H]1C(=O)N1CCC[C@H]1C(=O)N[C@H](C(=O)N[C@@H](CC(N)=O)C(=O)N[C@H](C(=O)NCC(=O)N[C@@H](CO)C(=O)N[C@@H](CC(N)=O)C(=O)N[C@H](C(=O)N[C@@H](Cc1ccc(O)cc1)C(N)=O)[C@@H](C)O)C(C)C)[C@@H](C)O) [Peptide 151 (SEQ ID NO: 151)] |
| 1.51 | 0.802 | 1.9 | K([γGlu-C18 diacid])KCNTATCATQRLANFL[Aib]HSSNHFGPILPPTNVGSETY-NH2 (disulfide 3-8; N-terminus assumed; SMILES CC[C@H](C)[C@H](NC(=O)[C@@H]1CCCN1C(=O)CNC(=O)[C@H](Cc1ccccc1)NC(=O)[C@H](Cc1c[nH]cn1)NC(=O)[C@H](CC(N)=O)NC(=O)[C@H](CO)NC(=O)[C@H](CO)NC(=O)[C@H](Cc1c[nH]cn1)NC(=O)C(C)(C)NC(=O)[C@H](CC(C)C)NC(=O)[C@H](Cc1ccccc1)NC(=O)[C@H](CC(N)=O)NC(=O)[C@H](C)NC(=O)[C@H](CC(C)C)NC(=O)[C@H](CCCNC(=N)N)NC(=O)[C@H](CCC(N)=O)NC(=O)[C@@H](NC(=O)[C@H](C)NC(=O)[C@@H]1CSSC[C@H](NC(=O)[C@H](CCCCN)NC(=O)[C@@H](N)CCCCNC(=O)CC[C@H](NC(=O)CCCCCCCCCCCCCCCCC(=O)O)C(=O)O)C(=O)N[C@@H](CC(N)=O)C(=O)N[C@@H]([C@@H](C)O)C(=O)N[C@@H](C)C(=O)N[C@@H]([C@@H](C)O)C(=O)N1)[C@@H](C)O)C(=O)N[C@@H](CC(C)C)C(=O)N1CCC[C@H]1C(=O)N1CCC[C@H]1C(=O)N[C@H](C(=O)N[C@@H](CC(N)=O)C(=O)N[C@H](C(=O)NCC(=O)N[C@@H](CO)C(=O)N[C@@H](CCC(=O)O)C(=O)N[C@H](C(=O)N[C@@H](Cc1ccc(O)cc1)C(N)=O)[C@@H](C)O)C(C)C)[C@@H](C)O) [Peptide 147 (SEQ ID NO: 147)] |
| 0.728 | 0.191 | 3.8 | K([γGlu-C18 diacid])KCNTATCATQRLANFL[Aib]HSSNNFGPILPPTNVGPNTY-NH2 (disulfide 3-8; N-terminus assumed; SMILES CC[C@H](C)[C@H](NC(=O)[C@@H]1CCCN1C(=O)CNC(=O)[C@H](Cc1ccccc1)NC(=O)[C@H](CC(N)=O)NC(=O)[C@H](CC(N)=O)NC(=O)[C@H](CO)NC(=O)[C@H](CO)NC(=O)[C@H](Cc1c[nH]cn1)NC(=O)C(C)(C)NC(=O)[C@H](CC(C)C)NC(=O)[C@H](Cc1ccccc1)NC(=O)[C@H](CC(N)=O)NC(=O)[C@H](C)NC(=O)[C@H](CC(C)C)NC(=O)[C@H](CCCNC(=N)N)NC(=O)[C@H](CCC(N)=O)NC(=O)[C@@H](NC(=O)[C@H](C)NC(=O)[C@@H]1CSSC[C@H](NC(=O)[C@H](CCCCN)NC(=O)[C@@H](N)CCCCNC(=O)CC[C@H](NC(=O)CCCCCCCCCCCCCCCCC(=O)O)C(=O)O)C(=O)N[C@@H](CC(N)=O)C(=O)N[C@@H]([C@@H](C)O)C(=O)N[C@@H](C)C(=O)N[C@@H]([C@@H](C)O)C(=O)N1)[C@@H](C)O)C(=O)N[C@@H](CC(C)C)C(=O)N1CCC[C@H]1C(=O)N1CCC[C@H]1C(=O)N[C@H](C(=O)N[C@@H](CC(N)=O)C(=O)N[C@H](C(=O)NCC(=O)N1CCC[C@H]1C(=O)N[C@@H](CC(N)=O)C(=O)N[C@H](C(=O)N[C@@H](Cc1ccc(O)cc1)C(N)=O)[C@@H](C)O)C(C)C)[C@@H](C)O) [Peptide 148 (SEQ ID NO: 148)] |
| 4.87 | 2.53 | 1.9 | K([γGlu-C18 diacid])KCNTATCATQRLANFL[Aib]HSSNNFGPILPPTHVGSETY-NH2 (disulfide 3-8; N-terminus assumed; SMILES CC[C@H](C)[C@H](NC(=O)[C@@H]1CCCN1C(=O)CNC(=O)[C@H](Cc1ccccc1)NC(=O)[C@H](CC(N)=O)NC(=O)[C@H](CC(N)=O)NC(=O)[C@H](CO)NC(=O)[C@H](CO)NC(=O)[C@H](Cc1c[nH]cn1)NC(=O)C(C)(C)NC(=O)[C@H](CC(C)C)NC(=O)[C@H](Cc1ccccc1)NC(=O)[C@H](CC(N)=O)NC(=O)[C@H](C)NC(=O)[C@H](CC(C)C)NC(=O)[C@H](CCCNC(=N)N)NC(=O)[C@H](CCC(N)=O)NC(=O)[C@@H](NC(=O)[C@H](C)NC(=O)[C@@H]1CSSC[C@H](NC(=O)[C@H](CCCCN)NC(=O)[C@@H](N)CCCCNC(=O)CC[C@H](NC(=O)CCCCCCCCCCCCCCCCC(=O)O)C(=O)O)C(=O)N[C@@H](CC(N)=O)C(=O)N[C@@H]([C@@H](C)O)C(=O)N[C@@H](C)C(=O)N[C@@H]([C@@H](C)O)C(=O)N1)[C@@H](C)O)C(=O)N[C@@H](CC(C)C)C(=O)N1CCC[C@H]1C(=O)N1CCC[C@H]1C(=O)N[C@H](C(=O)N[C@@H](Cc1c[nH]cn1)C(=O)N[C@H](C(=O)NCC(=O)N[C@@H](CO)C(=O)N[C@@H](CCC(=O)O)C(=O)N[C@H](C(=O)N[C@@H](Cc1ccc(O)cc1)C(N)=O)[C@@H](C)O)C(C)C)[C@@H](C)O) [Peptide 146 (SEQ ID NO: 146)] |
| 2.02 | 0.221 | 9 | K([γGlu-C18 diacid])CNTATCATQRLANFLRHSSNN[αMeF]GPILPPTEVGSNTY-NH2 (disulfide 2-7; N-terminus assumed; SMILES CC[C@H](C)[C@H](NC(=O)[C@@H]1CCCN1C(=O)CNC(=O)[C@](C)(Cc1ccccc1)NC(=O)[C@H](CC(N)=O)NC(=O)[C@H](CC(N)=O)NC(=O)[C@H](CO)NC(=O)[C@H](CO)NC(=O)[C@H](Cc1c[nH]cn1)NC(=O)[C@H](CCCNC(=N)N)NC(=O)[C@H](CC(C)C)NC(=O)[C@H](Cc1ccccc1)NC(=O)[C@H](CC(N)=O)NC(=O)[C@H](C)NC(=O)[C@H](CC(C)C)NC(=O)[C@H](CCCNC(=N)N)NC(=O)[C@H](CCC(N)=O)NC(=O)[C@@H](NC(=O)[C@H](C)NC(=O)[C@@H]1CSSC[C@H](NC(=O)[C@@H](N)CCCCNC(=O)CC[C@H](NC(=O)CCCCCCCCCCCCCCCCC(=O)O)C(=O)O)C(=O)N[C@@H](CC(N)=O)C(=O)N[C@@H]([C@@H](C)O)C(=O)N[C@@H](C)C(=O)N[C@@H]([C@@H](C)O)C(=O)N1)[C@@H](C)O)C(=O)N[C@@H](CC(C)C)C(=O)N1CCC[C@H]1C(=O)N1CCC[C@H]1C(=O)N[C@H](C(=O)N[C@@H](CCC(=O)O)C(=O)N[C@H](C(=O)NCC(=O)N[C@@H](CO)C(=O)N[C@@H](CC(N)=O)C(=O)N[C@H](C(=O)N[C@@H](Cc1ccc(O)cc1)C(N)=O)[C@@H](C)O)C(C)C)[C@@H](C)O) [Peptide 16 (SEQ ID NO: 16)] |
